Experimental data reported in publication PMC6362186, “Isolation and biochemical characterization of a metagenome-derived 3-deoxy-D-arabino-heptulosonate-7-phosphate synthase gene from subtropical marine mangrove wetland sediments” (AMB Express, 2019).

Tested on: T1, C=C(OP(=O)(O)O)C(=O)O
T1 construct: His-tagged from pET-30a(+) HindIII/XhoI, tag removal not mentioned, ~37 kDa on SDS-PAGE; E. coli Rosetta (DE3), Ni resin; tetramer only by homology model
Assay: purified protein
Format: biochemical, uncultured bacterium
Settings: co-substrate D-erythrose 4-phosphate, optimal conditions pH 8.0, 40 °C, CoCl2 0.1 mM in standard assay, PEP range printed as 0.1–0.5 μM

Substance: Aro1A (uncultured bacterium)
- Km: 19.58 µM
- kcat: 17.3 s⁻¹
